# Source: US20100009439A1
# B1: murine EM164 antibody (antibody, V domains shown)
# VH: QVQLQQSGAELVKPGASVKLSCKASGYTFTSYWMHWVKQRPGQGLEWIGEINPSNGRTNYNEKFKRKATLTVDKSSSTAYMQLSSLTSEDSAVYYFARGRPDYYGSSKWYFDVWGAGTTVTVS
# VL: DVLMTQTPLSLPVSLGDQASISCRSSQSIVHSNVNTYLEWYLQKPGQSPKLLIYKVSNRFSGVPDRFSGSGSGTDFTLRISRVEAEDLGIYYCFQGSHVPPTFGGGTKLEIKR
# modifications: here or on the partner: biotinylated with PEO-maleimide-biotin in the captured format
# B2: Fab fragment of EM164 antibody (Fab, V domains shown)
# VH: B1 VH
# VL: B1 VL
# modifications: here or on the partner: biotinylated with PEO-maleimide-biotin in the captured format
# Columns and labels:
# Conditions in all cases: remark: other sources report otherwise
# [1] = molecular target: T1, purified full-length human IGF-I receptor (human), P08069; assay: ELISA, hybridoma supernatant on coated purified human IGF-I receptor
# [2] = molecular target: T1, purified full-length human IGF-I …; assay: ELISA titration on biotinylated human IGF-I receptor captured on streptavidin; non-linear regression for one-site binding
# [3] = molecular target: T1, purified full-length human IGF-I …; assay: ELISA titration on human IGF-I receptor, similar to that of the whole antibody
Binder,absorbance units (405 nm) (absorbance units) [1],Kd [2] [nM],Kd [3] [nM]
B1,1.2,0.1,–
B2,–,–,0.3
